According to paper doi:10.1101/2022.06.15.496229 (bioRxiv, 2022):

B1: DHR2 domain of human DOCK10 (DOCK10^DHR2, residues 1695-2151) (domain or fragment)
chain: TPELRRTWLESMAKIHARNGDLSEAAMCYIHIAALIAEYLKRKGYWKVEKICTASLLSEDTHPCDSNSLLTTPSGGSMFSMGWPAFLSITPNIKEEGAMKEDSGMQDTPYNENILVEQLYMCVEFLWKSERYELIADVNKPIIAVFEKQRDFKKLSDLYYDIHRSYLKVAEVVNSEKRLFGRYYRVAFYGQGFFEEEEGKEYIYKEPKLTGLSEISQRLLKLYADKFGADNVKIIQDSNKVNPKDLDPKYAYIQVTYVTPFFEEKEIEDRKTDFEMHHNINRFVFETPFTLSGKKHGGVAEQCKRRTILTTSHLFPYVKKRIQVISQSSTELNPIEVAIDEMSKKVSELNQLCTMEEVDMIRLQLKLQGSVSVKVNAGPMAYARAFLEETNAKKYPDNQVKLLKEIFRQFADACGQALDVNERLIKEDQLEYQEELRSHYKDMLSELSTVMNEQITG

Legend:
[1] = target: B1; experiment: crystal structure
[2] = target: B1; experiment: ITC
crystal structure = target: the molecule itself; experiment: crystal structure

| stoichiometry N [1] [DOCK10^DHR2 per CDC42] | dH [2] [kJ/mol] | Binder | binding result (crystal structure) |
| --- | --- | --- | --- |
| 1 | 8.51 ± 0.06 | CDC42 (residues 1-191) (natural protein) not shown | – |
| – | – | B1 | binds |
